Data as given in article PMC4658334, “Reassessment of MxiH subunit orientation and fold within native Shigella T3SS needles using surface labelling and solid-state NMR” (Journal of Structural Biology, 2015).
Where a chain is given by its changes, count along the chain named.

B1: MxiH L32C (natural protein)
chain: MSVTVPNDDWTLSSLSETFDDGTQTLQGELTCALDKLAKNPSNPQLLAEYQSKLSEYTLYRNAQSNTVKVIKDVDAAIIQNFR
notes: MxiH, needle subunit of the T3SS, Shigella flexneri, with leucine 32 changed to cysteine; cloned into pACT3 via NdeI and HindIII; Printed mass of the unlabelled subunit is 9123.5 Da; source: S. flexneri, expressed from pACT3 with 200 μM IPTG; needles purified
B2: MxiH V68C (natural protein)
chain: B1 chain with C32L, V68C
notes: MxiH, needle subunit of the T3SS, Shigella flexneri, with valine 68 changed to cysteine; gene synthesized and cloned into pACT3 via NdeI and HindIII; Printed mass of the unlabelled subunit is 9137.5 Da; source: S. flexneri, expressed from pACT3 with 200 μM IPTG; needles purified
B3: MxiH, needle subunit of the Shigella flexneri type III secretion system (wild type, serotype 5) (natural protein)
chain: B1 chain with C32L
modifications: uniformly 13C,15N labelled
notes: MxiH, needle subunit of the T3SS, Shigella flexneri serotype 5; expressed from pACT3mxiH; arranged as a helical polymer (needle); Helical polymer; also called WT MxiH; native MxiH needles; source: S. flexneri ΔmxiH (pACT3mxiH), 200 μM IPTG, M9-type minimal medium; in vivo assembled needles shaved from the bacterial surface and purified

How the values were obtained:
[1] = molecular target: the molecule itself; assay: negative-stain electron microscopy of purified needles; purified needle preparations, about 0.1 μg/ml, on carbon-coated grids, stained with 1% phosphotungstic acid pH 7; self-association of the subunit into the needle polymer
[2] = molecular target: the molecule itself; assay: solid-state NMR; 5-7 mg of uniformly 13C,15N labelled natively grown needles packed in a 1.9 mm rotor; 20.0 T, 18 kHz MAS; self-association of the subunit into the needle polymer

Protein	binding result [1]	binding result [2]
B1	binds	–
B2	binds	–
B3	–	binds
